# Experimental data reported in the supplement of paper PMC7877785.
# ± gives the uncertainty stated by the source.
# Assay: self-splicing fitness, log relative to wild type (ln ratio); higher = more splicing; Tetrahymena group I intron in knt gene, E. coli kanamycin selection, DiMSum; sequences stand for … in CUCUCU…GGAGGGAAAAGUUAUCAGGCAUGCACCUGGUAGCUAGUCUUUAAACCAAUAGAUUGCAUCGGUUUAAAAGGCAAGACCGUCAAAUUGCGGGAAAGGGGUCAACAGCCGUUCAGUACCAAGUCUCAGGGGAAACUUUGAGAUGGCCUUGCAAAGGGUAUGGUAAUAAGCUGACGGACAUGGUCCUAACCACGCAGCCAAGUCCUAAGUCAACAGAUCUUCUGUUGAUAUGGAUGCAGUUCACAGACUAAAUGUCGGUCGGGGAAGAUGUAUUCUUCUCAUAAGAUAUAGUCGGACCUCUCCUUAAUGGGAGCUAGCGGAUGAAGUGAUGCAACACUGGAGCCGCUGGGAACUAAUUUGUAUGCGAAAGUAUAUUGAUUAGUUUUGGAGUACUCGUGGUCG
# Method in brief: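 DiMSum derived fitness as the error-weighted combination of fold changes across replicates, kanamycin versus no kanamycin, normalised to wild type. E. coli BL21(DE3) held the library, which randomised all eight P1ex-region intron nucleotides within the knt kanamycin-resistance gene on pET-22b(+). Six replicate transformations grew overnight at 37°C or 30°C on LB agar with or without 25 μg/mL kanamycin, also containing 100 μg/mL carbenicillin, 50 μM IPTG and 0.2% rhamnose, and pooled colonies were amplicon-sequenced on an Illumina HiSeq 2500.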
Sequence,self-splicing fitness (ln) (30 °C),self-splicing fitness (ln) (37 °C)
AAAAAGCAAUAUUACGAACC,-1.53 ± 0.12,-0.312 ± 0.18
AAAAAGCAAUAUUACGACCC,0.000517 ± 0.17,0.616 ± 0.24
AAAAAGCAAUAUUACGAGCA,-0.699 ± 0.076,-0.722 ± 0.091
AAAAAGCAAUAUUACGAGCC,-2.31 ± 0.2,-1.28 ± 0.27
AAAAAGCAAUAUUACGAUUA,-0.462 ± 0.067,0.23 ± 0.081
AAAAAGCAAUAUUACGCAAA,-1.15 ± 0.13,-1.43 ± 0.17
AAAAAGCAAUAUUACGCACC,-1.16 ± 0.14,-0.602 ± 0.16
AAAAAGCAAUAUUACGCAGC,-1.99 ± 0.13,-2.19 ± 0.19
AAAAAGCAAUAUUACGCCGG,-1.62 ± 0.11,0.057 ± 0.12
AAAAAGCAAUAUUACGCCUC,–,-1.18 ± 0.22
AAAAAGCAAUAUUACGCCUU,-0.374 ± 0.071,0.151 ± 0.1
AAAAAGCAAUAUUACGCGCA,-0.39 ± 0.082,0.127 ± 0.11
AAAAAGCAAUAUUACGGAAA,-2.24 ± 0.18,-1.58 ± 0.19
AAAAAGCAAUAUUACGGAGC,-3.4 ± 0.2,-2.1 ± 0.18
AAAAAGCAAUAUUACGGAUC,-0.895 ± 0.068,-0.418 ± 0.092
AAAAAGCAAUAUUACGGCAA,-0.286 ± 0.092,0.328 ± 0.12
AAAAAGCAAUAUUACGGCGC,-0.402 ± 0.093,0.559 ± 0.13
AAAAAGCAAUAUUACGGGCC,-1.8 ± 0.28,-1.17 ± 0.22
AAAAAGCAAUAUUACGGUCA,-0.0389 ± 0.065,0.206 ± 0.082
AAAAAGCAAUAUUACGGUGA,-0.824 ± 0.058,-0.362 ± 0.064
AAAAAGCAAUAUUACGUACC,-0.981 ± 0.13,-0.0947 ± 0.14
AAAAAGCAAUAUUACGUCGA,-1.05 ± 0.067,-0.415 ± 0.082
AAAAAGCAAUAUUACGUCGU,-1.5 ± 0.061,-0.928 ± 0.078
AAAAAGCAAUAUUACGUUAA,-2.66 ± 0.12,-1.05 ± 0.093
AAACAGCAAUAUUACGACGG,-3.02 ± 0.092,-1.13 ± 0.087
AAACAGCAAUAUUACGAGCA,-1.76 ± 0.091,-1.09 ± 0.082

Sequence,self-splicing fitness (ln) (30 °C),self-splicing fitness (ln) (37 °C)
AAACAGCAAUAUUACGAGCG,-1.93 ± 0.079,-0.668 ± 0.095
AAACAGCAAUAUUACGCAGG,-2.41 ± 0.15,-2.33 ± 0.15
AAACAGCAAUAUUACGCAUG,-2.12 ± 0.077,-1.58 ± 0.089
AAACAGCAAUAUUACGCCAG,-4.93 ± 0.39,-2.11 ± 0.22
AAACAGCAAUAUUACGCCCA,-1.29 ± 0.15,-0.816 ± 0.15
AAACAGCAAUAUUACGCCCU,-0.534 ± 0.11,0.201 ± 0.16
AAACAGCAAUAUUACGCGCG,-1.2 ± 0.067,-0.673 ± 0.081
AAACAGCAAUAUUACGCUCC,-1.21 ± 0.14,-0.165 ± 0.13
AAACAGCAAUAUUACGCUCG,-1.11 ± 0.083,-0.7 ± 0.11
AAACAGCAAUAUUACGCUGC,-4.51 ± 0.19,-1.81 ± 0.13
AAACAGCAAUAUUACGCUUG,-1.9 ± 0.096,-0.605 ± 0.098
AAACAGCAAUAUUACGCUUU,-3.11 ± 0.095,-1.33 ± 0.083
AAACAGCAAUAUUACGGAGA,-2.87 ± 0.15,-2.57 ± 0.15
AAACAGCAAUAUUACGGUAU,-2.53 ± 0.074,-1.58 ± 0.088
AAACAGCAAUAUUACGGUCG,-1.07 ± 0.059,-0.526 ± 0.082
AAACAGCAAUAUUACGGUCU,-0.15 ± 0.059,-0.161 ± 0.064
AAACAGCAAUAUUACGUAAA,-2.37 ± 0.068,-1.13 ± 0.074
AAACAGCAAUAUUACGUAAC,-4.39 ± 0.24,-1.97 ± 0.14
AAACAGCAAUAUUACGUAUA,-3 ± 0.14,-1.27 ± 0.12
AAACAGCAAUAUUACGUAUU,-2.17 ± 0.089,-1.53 ± 0.097
AAACAGCAAUAUUACGUGAA,-1.92 ± 0.073,-0.646 ± 0.072
AAAGAGCAAUAUUACGAAGG,-3.52 ± 0.33,-2.64 ± 0.41
AAAGAGCAAUAUUACGACCC,-2.42 ± 0.45,–
AAAGAGCAAUAUUACGACGU,-1.63 ± 0.084,-0.555 ± 0.089
AAAGAGCAAUAUUACGAGUC,-3.41 ± 0.38,-2.63 ± 0.45
AAAGAGCAAUAUUACGCACG,-2.69 ± 0.23,-2.22 ± 0.26

Sequence,self-splicing fitness (ln) (30 °C),self-splicing fitness (ln) (37 °C)
AAAGAGCAAUAUUACGCCAA,-1.26 ± 0.21,–
AAAGAGCAAUAUUACGCCCA,-2.88 ± 0.32,-2.02 ± 0.28
AAAGAGCAAUAUUACGCUUA,-2.74 ± 0.31,-3.02 ± 0.23
AAAGAGCAAUAUUACGGACU,-1.36 ± 0.12,-1.59 ± 0.16
AAAGAGCAAUAUUACGGCAC,-2.72 ± 0.19,-2.01 ± 0.21
AAAGAGCAAUAUUACGGGAA,-2.67 ± 0.32,-2.16 ± 0.28
AAAGAGCAAUAUUACGGGGU,-2.63 ± 0.21,-2.18 ± 0.24
AAAGAGCAAUAUUACGGUAC,-4.14 ± 0.24,-2.57 ± 0.2
AAAGAGCAAUAUUACGGUUA,-2.49 ± 0.21,-2.06 ± 0.18
AAAGAGCAAUAUUACGGUUC,–,-2.82 ± 0.36
AAAGAGCAAUAUUACGUACU,-1.21 ± 0.14,-0.952 ± 0.15
AAAGAGCAAUAUUACGUCAU,-2.38 ± 0.37,-2.45 ± 0.35
AAAGAGCAAUAUUACGUCCC,-2.1 ± 0.28,-1.07 ± 0.35
AAAGAGCAAUAUUACGUGAA,-3.27 ± 0.14,-2.44 ± 0.16
AAAGAGCAAUAUUACGUGGC,-2.86 ± 0.23,–
AAAGAGCAAUAUUACGUUCC,-3.94 ± 0.31,-2.49 ± 0.29
AAAUAGCAAUAUUACGAAAG,-3.48 ± 0.18,-1.6 ± 0.14
AAAUAGCAAUAUUACGAACC,-1.91 ± 0.33,1.21 ± 0.28
AAAUAGCAAUAUUACGAACU,1.11 ± 0.17,-0.182 ± 0.16
AAAUAGCAAUAUUACGAAGC,-3.18 ± 0.47,–
AAAUAGCAAUAUUACGAUCU,-0.0304 ± 0.11,0.867 ± 0.13
AAAUAGCAAUAUUACGAUGC,-2.26 ± 0.31,-1.65 ± 0.34
AAAUAGCAAUAUUACGCACC,-1.34 ± 0.21,-0.223 ± 0.23
AAAUAGCAAUAUUACGCACU,0.478 ± 0.12,-0.381 ± 0.13
AAAUAGCAAUAUUACGCCAA,-2.54 ± 0.18,-1.86 ± 0.13
AAAUAGCAAUAUUACGCCCA,-0.102 ± 0.18,-0.392 ± 0.17
